Data as given in PMC8667150.

Columns and labels:
[1] = Western blot of transfected AR42J cells; conditions: glycan lost; control: wild type
[2] = immunofluorescence, anti-myc and anti-calnexin, AR42J cells; conditions: glycan lost; control: wild type

B1: somatostatin receptor type 2 (SSTR2): N9Q (protein)
parent chain: MELTSEQFNGSQVWIPSPFDLNGSLGPSNGSNQTEPYYDMTSNAVLTFIYFVVCVVGLCGNTLVIYVILRYAKMKTITNIYILNLAIADELFMLGLPFLAMQVALVHWPFGKAICRVVMTVDGINQFTSIFCLTVMSIDRYLAVVHPIKSAKWRRPRTAKMINVAVWGVSLLVILPIMIYAGLRSNQWGRSSCTINWPGESGAWYTGFIIYAFILGFLVPLTIICLCYLFIIIKVKSSGIRVGSSKRKKSEKKVTRMVSIVVAVFIFCWLPFYIFNVSSVSVAISPTPALKGMFDFVVILTYANSCANPILYAFLSDNFKKSFQNVLCLVKVSGAEDGERSDSKQDKSRLNETTETQRTLLNGDLQTSI
expression_or_secretion [1]: decreases | localisation_or_trafficking [2]: changes
